From patent publication US9427478B2, “Enzymatic conjugation of polypeptides” (Innate Pharma, priority 2013, dated 2016)

Key:
[1] = SE-HPLC, physical stability after freeze/thaw and shaking; format: physicochemical; details: physical stability study
Protocol: Physical stability was measured after a Freeze/Thaw (F/T) cycle in which ADC products are frozen at least 2 hours at −20° C. and thawed at least 1 hour at room temperature three times and tested 24 h after the last Freeze/Thaw cycle, and after shaking in which ADC products samples are shaken with a “vortex” 3 min at 3000 rpm and tested 24 h after this shaking stress application. […] Measurements were also made by SE-HPLC, performed with the Acquity UPLC from WATERS® with a BEH200 SEC 1.7 μm column. SE-HPLC is used to evaluate soluble and covalent/non-covalent aggregates levels and the proteic fragments that could be generated.

[2] = SE-HPLC, chemical stability on storage; format: physicochemical
Protocol: A chemical stability study monitored the molecular integrity of the ADC products that could be impacted following 3 months storage at +40° C. (thermal stress accelerated degradation storage conditions). Samples stored at +40° C. were compared to samples stored at +5° C., as assessed by SE-HPLC, performed with the Acquity UPLC from WATERS® with a BEH200 SEC 1.7 μm column.

ADCETRIS ®
fragments, in words [1]: significant levels of fragments
fragments, in words ([2]; chemical stability at 5° C.): significant levels of fragments
Fragments % ([2]; storage at 5° C., T1 W (1 week)): 1.77%
